Measured values from the supplement of paper PMC9170038.

Test system: MS2 coat protein
Assay: apparent KD of MS2 coat protein; designed switch direction (-1 OFF switch, 1 ON switch): -1; higher = weaker reporter binding
Summary of the method: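 Designed RNA switches sharing common flanks were transcribed on Illumina chips by stalled E. coli RNA polymerase. They were titrated with SNAP-549-labelled MS2 coat protein, from 0.7 or 1.5 nM doubling to 3 µM, in Tris-HCl pH 7.5 buffer with KCl, MgCl2, BSA, DTT, tRNA and Tween-20. Titrations ran without input, with 200 uM small-molecule ligand, or with an oligonucleotide input. The apparent KD of each design is the median over its clusters, after curve-fitting of normalised cluster fluorescence.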

[1] = Eterna round: R95, input ligand: FMN 200 uM
[2] = Eterna round: R95, input ligand: microRNA oligo, concentration not stated
[3] = Eterna round: R95, input ligand: none
[4] = input ligand: microRNA oligo, concentration not stated

| Sequence | apparent KD of MS2 coat protein (input ligand: FMN 200 uM) | apparent KD of MS2 coat protein (input ligand: none) | apparent KD of MS2 coat protein [1] | apparent KD of MS2 coat protein [2] | apparent KD of MS2 coat protein [3] | apparent KD of MS2 coat protein [4] |
| --- | --- | --- | --- | --- | --- | --- |
| AAGAAACAUGAGGAUCACCCAUGUGAGGAUAUGAGCACGCCGGUGACGGUGAUAAGAAUCAGAAGGCACAAAGG [JL-ex1-4.34 salish99 mod] (Eterna round: R97, puzzle: Exclusion 1) | 93 nM | 77.8 nM | – | – | – | – |
| AAGAAACAUGAGGAUCACCCAUGUGAGGAUAUGAGUAAGAAAAGAAAAGAAAGAAGACUCAGAAGGCACAAAGG [salish99-ex1_r3_074] (puzzle: Exclusion 1) | – | – | 135 nM | 110 nM | 86.8 nM | – |
| AAGAAACAUGAGGAUCACCCAUGUGAGGAUAUGUAAAAUAAAAGAAAAGAAAUAAUAAACAGAAGGCACAAAGG [Mat - Mod of Hog D15] (puzzle: Exclusion 1) | – | – | 52.1 nM | 30.9 nM | 41.4 nM | – |
| AAGAAACAUGAGGAUCACCCAUGUGAGGAUAUGUAAAAUAAAAGAAAAUAAAGAAGAAACAGAAGGCACAAAGG [Mat - Mod of Hog D22] (puzzle: Exclusion 1) | – | – | 40.3 nM | 36.1 nM | 33.7 nM | – |
| AAGAAAGAGUUAGGAUAUACAUGAGGAUCACCCAUGUGGUGGUAAAUCCGCUGGGUCGGUUCGAUGUAGAAGGAACAACCGCCG [Inisinlaon] (Eterna round: R96, puzzle: Exclusion NG 2) | 281 nM | 68.3 nM | – | – | – | 18.7 nM |
| AAGAACGUAGGAUAUACAUGAGGAUCACCCAUGUGAGGAAGGAGUAGGAAGUGUGGAAGUAGAAGGACGGAGAG [JR_Exclu3_Sub076] (puzzle: Exclusion 3) | – | – | 31.5 nM | 35.4 nM | 33.8 nM | – |
| AAGAAGAAACAAGCUUUUUGCACGUCAUAUAGUGACGCAACAUGAGGAUCACCCAUGUAUAGGGUGGGAAAGGAUAG [JR_SV3TOV2_Sub047] (Eterna round: R96, puzzle: Sensor v3, turn-off variant 2) | 669 nM | 826 nM | – | – | – | 352 nM |
| AAGAAGAAACAAGCUUUUUGCACGUCAUAUAGUGACGCAACAUGAGGAUCACCCAUGUAUAGGGUGGGAAAGGAUAG [JR_SV3TOV2_Sub047] (puzzle: Sensor v3, turn-off variant 2) | – | – | 338 nM | 70 nM | 423 nM | – |
| AAGAAGAUCAGAGGAUAUGGAGCUGAAACGGCGCUAGAAGGCUGUCUAGUGUAACAUGAGGAUCACCCAUGUAGGGACCUCUAA [EX ng 1 4.3] (Eterna round: R96, puzzle: Exclusion NG 1) | 874 nM | 884 nM | – | – | – | 795 nM |
| AAGAAGCGAGGAUAUACAUGAGGAUCACCCAUGUACCUCAUAAAGAAAAGAAAAGAAAGUAGAAGGCGCAAAAG [Default title] (puzzle: Exclusion 3) | – | – | 24.2 nM | 23.1 nM | 18.4 nM | – |
| AAGAAGCUAGGAUAUCACACUGACAACAUGAGGAUCACCCAUGUAGGUGAUCGGUUAGCUUGAGAAGGAGCGGAGG [Laedanes] (puzzle: Exclusion 5) | – | – | 83.5 nM | 46.9 nM | 78.3 nM | – |
| AAGAAGUCAGGAUAUACAUGAGGAUCACCCAUGUAAAAGAAAGAAAAGGGAAAGAAAAGUAGAAGGGACAAGAA [Menkheperre Thutmose III] (Eterna round: R96, puzzle: Exclusion 3) | 22.9 nM | 27.2 nM | – | – | – | 21.8 nM |
| AAGAAUCGCAAUACGAAUAAGCAAUACGAACAAUAGCAAACAUGAGGAUCACCCAUGUCAAGGGUGACAACGCUCUA [JR_Sensorv2_tov2_Sub107] (Eterna round: R96, puzzle: Sensor v2, turn-off variant 2) | 173 nM | 862 nM | – | – | – | 61.2 nM |
| AAGAAUUAGUCAGGAUAUAGCGGCCAAGAACUACUAGAAGGGAUUAGACAUGAGGAUCACCCAUGUGAUCUUUUUGUAGGGACG [Eternabot solution 15] (Eterna round: R96, puzzle: Exclusion NG 1) | 32.6 nM | 41.2 nM | – | – | – | 25.7 nM |
| AAGACAAAUGUAGGAUAUGCGUGGCGAAGCUAUGCAGAAGGACAUGAGGAUCACCCAUGUCUAAGCGUCUGCGUACAGAUGCUA [JL eng1 1.35 mod 8] (Eterna round: R96, puzzle: Exclusion NG 1) | 19.9 nM | 18.4 nM | – | – | – | 10.7 nM |
| AAGAGCAAGGCAGGAUAUCACAUGAGGAUCACCCAUGUAUCCGAAAGAACAACGCCCGCGUUGUGUGAGAAGGGUCUAUGCAGG [Eternabot solution 10] (Eterna round: R96, puzzle: Exclusion NG 2) | 370 nM | 75.8 nM | – | – | – | 61.6 nM |
| AAGAGUGCAGGAUAUACUUGGUAGGGCGGGUGGAUGGUUUGACAUGAGGAUCACCCAUGUAGAAGGGCAGAGAG [JR_Exclu2_Sub054] (puzzle: Exclusion 2) | – | – | – | 31.4 nM | – | – |

| Sequence | apparent KD of MS2 coat protein (input ligand: FMN 200 uM) | apparent KD of MS2 coat protein (input ligand: none) | apparent KD of MS2 coat protein [1] | apparent KD of MS2 coat protein [2] | apparent KD of MS2 coat protein [3] | apparent KD of MS2 coat protein [4] |
| --- | --- | --- | --- | --- | --- | --- |
| AAGAGUGCAGGAUAUACUUGUUAGGACGGUUGGAUGAAUGGACAUGAGGAUCACCCAUGUAGAAGGGCAGAGAG [JR_Exclu2_Sub051] (puzzle: Exclusion 2) | – | – | 33.9 nM | 30.2 nM | 41.3 nM | – |
| AAGAUGUAAGGAUAUGCUGCUCGUCACAAAAGUGAUGAGUAGCAGAAGGUACAUGAGGAUCACCCAUGUAGAGA [Opal 38] (Eterna round: R96, puzzle: Exclusion 4) | 60.6 nM | 22.7 nM | – | – | – | 18.2 nM |
| AAGAUGUCAGGAUAUUAGUAGUAAAUGAAUAAAAUUAUUACUGAGAAGGGACAUGAGGAUCACCCAUGUGUCUU [Mat - Exclusion 4 - Eli Mod - D11] (Eterna round: R97, puzzle: Exclusion 4) | 80.2 nM | 19.8 nM | – | – | – | – |
| AAGAUGUGAGGAUAUCUAUUGAAGCGCGGUUCCCGGCAGAGAGAGAAGGCACAUGAGGAUCACCCAUGUAUAGC [Eternabot (L1) Solution 53] (Eterna round: R97, puzzle: Exclusion 4) | 56.5 nM | 20.6 nM | – | – | – | – |
| AAGAUGUUAGGAUAUCGAAGGUUGUGGCAGGCGGGAAUUUGCGAGAAGGAACAUGAGGAUCACCCAUGUGAAAU [JR_Exclu4_Sub043] (puzzle: Exclusion 4) | – | – | – | 19.7 nM | – | – |
| AAGAUUAGGAAAGGAUAUAAAGAGAAACAAAGUGCACAUGAGGAUCACCCAUGUACUGACACGCGUUAGAAGGUUCCAGUCCUC [Eternabot solution 40] (Eterna round: R96, puzzle: Exclusion NG 2) | 18.1 nM | 25.4 nM | – | – | – | 15.5 nM |
| AAGCACCAUGUGAGGAUAUGCCACGGAACCGAUGGGCAGAAGGCACAUGAGGAUCACCCAUGUGACCGGUGGAU [Eternabot (Original) Solution 48] (Eterna round: R97, puzzle: Brourd's mod of Exclusion 4) | 236 nM | 44.6 nM | – | – | – | – |
| AAGCCUCUUGUCAGGAUAUCUGUCGGUCCUCCAAGAGAGAAGGGACAUGAGGAUCACCCAUGUAAGCCCAGGGA [Qubere] (puzzle: Brourd's mod of Exclusion 4) | – | – | – | 13.5 nM | – | – |
| AAGCGCGUAGGAUAUACAUGAGGAUCACCCAUGUGAGGAAGGAGUAGGAAGUGUGGAAGUAGAAGGACGGAGAG [JR_Exclu3_Sub077] (puzzle: Exclusion 3) | – | – | 34.4 nM | 31.1 nM | 37.4 nM | – |
| AAGGAUAGAGGAUAUACAUAGAUACAGAUUCAUGUAGAACUACAUGAGGAUCACCCAUGUAGAAGGCUAUCCUA [Mat - Same state - Mayanna Mod - D121] (Eterna round: R96, puzzle: Exclusion 2) | 316 nM | 33.3 nM | – | – | – | 24.8 nM |
| AAGGAUAGAGGAUAUACAUAGAUACAGAUUCAUGUAGAAUUACAUGAGGAUCACCCAUGUAGAAGGCUAUCCUA [Fiskers Ex 2 - 1] (puzzle: Exclusion 2) | – | – | – | 285 nM | – | – |
| AAGGAUAGAGGAUAUACAUAGAUACAGAUUCAUGUAGACCUACAUGAGGAUCACCCAUGUAGAAGGCUAUCCUA [Fiskers Ex 2 - 11] (puzzle: Exclusion 2) | – | – | – | 16 nM | – | – |
| AAGGGACAUGAGGAUCACCCAUGUGAGGAUAUGCUAUGGAAAAUAAAAAAUAAACAUAGCAGAAGGCAUAAAAA [Mat - Exclusion 1 - Eli mod - D37] (Eterna round: R96, puzzle: Exclusion 1) | 89.2 nM | 99.2 nM | – | – | – | 65.3 nM |
| AAGGGUACUUUCGGAACGACAUGAGGAUCACCCAUGUAUACUGAGGAUAUCCACUACUAAGGACGGGAGAAGGCAGUGUAAUGU [Ex NG3 #78] (Eterna round: R96, puzzle: Exclusion NG 3) | 18.8 nM | 18.5 nM | – | – | – | 13.6 nM |
| AAGGGUGCUUUCAGAACGACAUGAGGAUCACCCAUGUAGACUGAGGAUAUCUACUCCUAAGGACGGGAGAAGGUAGUGUAAUGC [Ex NG3 #66] (Eterna round: R96, puzzle: Exclusion NG 3) | 22.8 nM | 26.1 nM | – | – | – | 17.7 nM |
| AAGGUGGCAGGAUAUACAUGAGGAUCACCCAUGUGAACGUAAGGAGACUCUCUCAAAGGUAGAAGGGUCGGUUC [Eternabot (L2) Solution 1] (Eterna round: R97, puzzle: Exclusion 3) | 56.3 nM | 121 nM | – | – | – | – |
